Assay results: patent publication US12416018B2, “Regulation of gene expression by aptamer-mediated modulation of alternative splicing” (MEIRAGTX GENE REGULATION LIMITED, priority 2015, dated 2025)
Entries after “also recorded” stand apart in the source; their conditions may differ.

Tested on: firefly luciferase gene expression in HEK 293 cells
Assay: Firefly luciferase assay of HEK 293 cells transfected with splicing / Intron-Exon-Intron constructs (no ligand)
Format: cell-based
Settings: not given
Method: Transfection: 3.5×10^4 HEK 293 cells were plated in 96-well flat bottom plate the day before transfection. Plasmid DNA (500 ng) was added to a tube or a 96-well U-bottom plate. Separately, TransIT-293 reagent (Mirus; 1.4 uL) was added to 50 μL Opti-mem I media (Life Technologies), and allowed to sit for 5 minutes at room temperature (RT). Then, 50 μL of this diluted transfection reagent was added to the DNA, mixed, and incubated at room temperature (“RT”) for 20 min. Finally, 7 μL of this solution was added to a well of cells in the 96-well plate.
Firefly luciferase assay of cultured cells: 24 hours after media change, plates were removed from the incubator, and equilibrated to RT for several minutes on a lab bench, then aspirated. Glo-lysis buffer (Promega, 100 μL, RT) was added, and the plates allowed to remain at RT for at least 5 minutes. Then, the well contents were mixed by 50 μL trituration, and 20 μL of each sample was mixed with 20 μL of bright-glo reagent (Promega) that had been diluted to 10% in glo-lysis buffer. 96 wells were spaced on an opaque white 384-well plate. Following a 5 min incubation at RT, luminescence was measured using Tecan machine with 500 mSec read time. The luciferase activity was expressed as mean relative light unit (RLU)±S.D.
The constructs were verified by DNA sequencing (Genewiz). DNA was transfected in HEK 293 cells and assayed for luciferase activity as described in Example 1.
Sequences containing the DHFR exon 2 with native 3′ and 5′ ss sequences, in which the 5′ss was embedded in a hairpin structure were synthesized (IDT), and cloned into the indicated vector using Golden Gate cloning strategy (NEB). Constructs were transfected into HEK 293 cells and assayed for luciferase activity as described in Example 1.

Row | Molecule | luciferase expression relative to control constructs (in words) | fold lower luciferase expression compared with Con 1 | fold increase in luciferase expression compared to the wild type DHFR exon 2 [fold]
1 | DHFR_wtmtSRp40_HP15: DHFR_wtmtSRp40 with 5′ss in hairpin; SEQ ID NO: 56 (nucleic acid, expressed or natural sequence) DNA: GAGTAACGCTGTTTCTCTAACTTGTAGGAATGAATTCAGATATTTCCAGAGAATGAAAAAAAAATCTTCAGTAGAAGGTAATGTGGCGAAAGCCACATTACCTTCT | restored luciferase expression |  | 
2 | DHFR_wtmtSRp40_HP15x: DHFR_wtmtSRp40 with broken hairpin; SEQ ID NO: 57 (nucleic acid, expressed or natural sequence) DNA: GAGTAACGCTGTTTCTCTAACTTGTAGGAATGAATTCAGATATTTCCAGAGAATGAAAAAAAAATCTTCAGTAGAAGGTAATGTGGCGAAAAACAGAACTGAGTAT | blocked luciferase expression; also recorded: prevents expression of luciferase |  | 
3 | DHFR_Con15ss_HP15: DHFR_Con15ss with 15 bp hairpin embedding the 5′ss; SEQ ID NO: 54 (nucleic acid, expressed or natural sequence) DNA: GAGTAACGCTGTTTCTCTAACTTGTAGGAATGAATTCAGATATTTCCAGAGAATGACCACAACCTCTTCAGTAGAGGGTGAGTTGGCGAAAGCCAACTCACCCTCT | allows luciferase expression |  | 
4 | DHFR_Con15ss_HP15x: 15 bp hairpin with broken stem; SEQ ID NO: 55 (nucleic acid, expressed or natural sequence) DNA: GAGTAACGCTGTTTCTCTAACTTGTAGGAATGAATTCAGATATTTCCAGAGAATGACCACAACCTCTTCAGTAGAGGGTGAGTTGGCGAAAAACAGCATAAAGTAT | not able to restore luciferase expression; also recorded: does not restore luciferase expression |  | 
5 | Con 3: luciferase with IVS2Δ, altered 5′ss; SEQ ID NO: 3 (nucleic acid, Luci-IVS-Luci in construct Con3) DNA: TTCTTCGCCAAAAGCAGTAAGTCTATGGGACCCTTGATGTTTTCTTTCCCCTTCTTTTCTATGGTTAAGTTCATGTCATAGGAAGGGGAGAAGTAACAGGGTACACATATTGACCAAATCAGGGTAATTTTGCATTTGTAATTTTAAAAAATGCTTTCTTCTTTTAATATACTTTTTTGTTTATCTTATTTCTAATACTTTCCCTAATCTCTTTCTTTCAGGGCAATAATGATACAATGTATCATGCCTCTTTGCACCATTCTAAAGAATAACAGTGATAATTTCTGGGTTAAGGCAATAGCAATATTTCTGCATATAAATATTTCTGCATATAAATTGTAACTGATGTAAGAGGTTTCATATTGCTAATAGCAGCTACAATCCAGCTACCATTCTGCTTTTATTTTATGGTTGGGATAAGGCTGGATTATTCTGAGTCCAAGCTAGGCCCTTTTGCTAATCATGTTCATACCTCTTATCTTCCTCCCACAGCTCTGATTGACAAATACG | expression levels similar to Con 1 and Con 8 |  | 
6 | Con 4: luciferase with IVS2Δ, weak 5′ss; SEQ ID NO: 4 (nucleic acid, Luci-IVS-Luci in construct Con4) DNA: AAGAGCTGTTTCTGAGGAGGTGTGGCTATGGGACCCTTGATGTTTTCTTTCCCCTTCTTTTCTATGGTTAAGTTCATGTCATAGGAAGGGGAGAAGTAACAGGGTACACATATTGACCAAATCAGGGTAATTTTGCATTTGTAATTTTAAAAAATGCTTTCTTCTTTTAATATACTTTTTTGTTTATCTTATTTCTAATACTTTCCCTAATCTCTTTCTTTCAGGGCAATAATGATACAATGTATCATGCCTCTTTGCACCATTCTAAAGAATAACAGTGATAATTTCTGGGTTAAGGCAATAGCAATATTTCTGCATATAAATATTTCTGCATATAAATTGTAACTGATGTAAGAGGTTTCATATTGCTAATAGCAGCTACAATCCAGCTACCATTCTGCTTTTATTTTATGGTTGGGATAAGGCTGGATTATTCTGAGTCCAAGCTAGGCCCTTTTGCTAATCATGTTCATACCTCTTATCTTCCTCCCACAGCCTTCAGGATTACAAGATTCAA | significantly reduce luciferase expression |  | 
7 | Con 1: luciferase gene with truncated human beta-globin intron 2 (IVS2Δ), original IVS2 splice sites; SEQ ID NO: 1 (nucleic acid, Luci-IVS-Luci in construct Con1 Human beta- globin intron 2 containing a deletion (IVS2) is in lowercase and flanking luciferase sequence is in uppercase.) DNA: GAGGTTCCATCTGCCAGGTATCAGGGTGAGTCTATGGGACCCTTGATGTTTTCTTTCCCCTTCTTTTCTATGGTTAAGTTCATGTCATAGGAAGGGGAGAAGTAACAGGGTACACATATTGACCAAATCAGGGTAATTTTGCATTTGTAATTTTAAAAAATGCTTTCTTCTTTTAATATACTTTTTTGTTTATCTTATTTCTAATACTTTCCCTAATCTCTTTCTTTCAGGGCAATAATGATACAATGTATCATGCCTCTTTGCACCATTCTAAAGAATAACAGTGATAATTTCTGGGTTAAGGCAATAGCAATATTTCTGCATATAAATATTTCTGCATATAAATTGTAACTGATGTAAGAGGTTTCATATTGCTAATAGCAGCTACAATCCAGCTACCATTCTGCTTTTATTTTATGGTTGGGATAAGGCTGGATTATTCTGAGTCCAAGCTAGGCCCTTTTGCTAATCATGTTCATACCTCTTATCTTCCTCCCACAGCAAGGATATGGGCTCACTGAGACTACATCAGCTATTCT | did not affect gene expression |  | 
8 | DHFR_wt: Con 1 with wild type human DHFR exon 2, native 5′ss; SEQ ID NO: 47 (nucleic acid, expressed or natural sequence) DNA: GAGTAACGCTGTTTCTCTAACTTGTAGGAATGAATTCAGATATTTCCAGAGAATGACCACAACCTCTTCAGTAGAAGGTAATGTG |  | 116 fold | 
9 | DHFR_Con15ss: DHFR exon 2 with 5′ss from Con 1; SEQ ID NO: 49 (nucleic acid, expressed or natural sequence) DNA: GAGTAACGCTGTTTCTCTAACTTGTAGGAATGAATTCAGATATTTCCAGAGAATGACCACAACCTCTTCAGTAGAGGGTGAGTTG | abolishes luciferase expression compared to Con 1; also recorded: efficiently suppresses luciferase expression | 545 fold | 
10 | DHFR_wtmtSRp40: DHFR exon 2 with mutated SRp40 binding site; SEQ ID NO: 51 / 58 (nucleic acid, expressed or natural sequence) DNA 1: GAGTAACGCTGTTTCTCTAACTTGTAGGAATGAATTCAGATATTTCCAGAGAATGAAAAAAAAATCTTCAGTAGAAGGTAATGTG DNA 2: GAGTAACGCTGTTTCTCTAACTTGTAGGAATGAATTCAGATATTTCCAGAGAATGAAAAAAAAATCTTCAGTAGAAGGTAATGT | does not express luciferase | 2,982 fold | 
11 | DHFR_wt5ssC: DHFR exon 2 with native 5′ss four nucleotides mutated to C; SEQ ID NO: 48 (nucleic acid, expressed or natural sequence) DNA: GAGTAACGCTGTTTCTCTAACTTGTAGGAATGAATTCAGATATTTCCAGAGAATGACCACAACCTCTTCAGTAGAAGCCCCTGTG | restored to the level of Con 1 |  | 
12 | DHFR_wtSC35hnRNPA1: DHFR exon 2, SC35 site replaced by hnRNP A1 binding site; SEQ ID NO: 53 (nucleic acid, expressed or natural sequence) DNA: GAGTAACGCTGTTTCTCTAACTTGTAGGAATGTAGGGAGATATTTCCAGAGAATGACCACAACCTCTTCAGTAGAAGGTAATGTG | increased luciferase expression |  | 4.3
13 | DHFR_wtStrSC35: DHFR exon 2 with stronger SC35 binding site; SEQ ID NO: 52 (nucleic acid, expressed or natural sequence) DNA: GAGTAACGCTGTTTCTCTAACTTGTAGGAATGGCCCCTGATATTTCCAGAGAATGACCACAACCTCTTCAGTAGAAGGTAATGTG |  | 139 fold | 
14 | DHFR_Con45ss: DHFR exon 2 with weak 5′ss from Con 4; SEQ ID NO: 50 (nucleic acid, expressed or natural sequence) DNA: GAGTAACGCTGTTTCTCTAACTTGTAGGAATGAATTCAGATATTTCCAGAGAATGACCACAACCTCTTCAGTAGGAGGTGTGGTG | luciferase expression is increased |  | 
15 | Con 2: luciferase with IVS2Δ, altered 5′ss; SEQ ID NO: 2 (nucleic acid, Luci-IVS-Luci in construct Con2) DNA: GATTACACCCGAGGGGGATGATAAAGTAAGCCTATGGGACCCTTGATGTTTTCTTTCCCCTTCTTTTCTATGGTTAAGTTCATGTCATAGGAAGGGGAGAAGTAACAGGGTACACATATTGACCAAATCAGGGTAATTTTGCATTTGTAATTTTAAAAAATGCTTTCTTCTTTTAATATACTTTTTTGTTTATCTTATTTCTAATACTTTCCCTAATCTCTTTCTTTCAGGGCAATAATGATACAATGTATCATGCCTCTTTGCACCATTCTAAAGAATAACAGTGATAATTTCTGGGTTAAGGCAATAGCAATATTTCTGCATATAAATATTTCTGCATATAAATTGTAACTGATGTAAGAGGTTTCATATTGCTAATAGCAGCTACAATCCAGCTACCATTCTGCTTTTATTTTATGGTTGGGATAAGGCTGGATTATTCTGAGTCCAAGCTAGGCCCTTTTGCTAATCATGTTCATACCTCTTATCTTCCTCCCACAGCCGGGCGCGGTCGGTAAAGT | expression levels similar to Con 1 and Con 8 |  | 

Same assay, conditions: listed as DHFR_Con 15ss_HP15

Row | Molecule | luciferase expression relative to control constructs (in words)
16 | DHFR_Con15ss_HP15: DHFR_Con15ss with 15 bp hairpin embedding the 5′ss; SEQ ID NO: 54 (nucleic acid, expressed or natural sequence) DNA: GAGTAACGCTGTTTCTCTAACTTGTAGGAATGAATTCAGATATTTCCAGAGAATGACCACAACCTCTTCAGTAGAGGGTGAGTTGGCGAAAGCCAACTCACCCTCT | completely restores luciferase expression to the level of Con 1

Same assay, conditions: listed as DHFR_mtSRp40

Row | Molecule | fold lower luciferase expression compared with Con 1 [fold]
17 | DHFR_wtmtSRp40: DHFR exon 2 with mutated SRp40 binding site; SEQ ID NO: 51 / 58 (nucleic acid, expressed or natural sequence) DNA 1: GAGTAACGCTGTTTCTCTAACTTGTAGGAATGAATTCAGATATTTCCAGAGAATGAAAAAAAAATCTTCAGTAGAAGGTAATGTG DNA 2: GAGTAACGCTGTTTCTCTAACTTGTAGGAATGAATTCAGATATTTCCAGAGAATGAAAAAAAAATCTTCAGTAGAAGGTAATGT | 2982
